T1: Murine PAR-2 peptide (murine)
T1 construct: also called mouse PAR-2 peptide
T1 peptide: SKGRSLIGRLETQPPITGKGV

T2: PAR-2 peptide (SEQ ID NO:42) coupled to Transferrin as carrier (coupled to Transferrin as carrier)
T2 construct: Transferrin carrier not further described
T2 peptide: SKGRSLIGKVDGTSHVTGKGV

T3: PAR-4 peptide (SEQ ID NO:44)
T3 peptide: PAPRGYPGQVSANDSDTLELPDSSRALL

T4: Human PAR-2 on cells (human, UniProt P55085 26-397)
T4 construct: also called HEK-PAR-2 (#3); human PAR-2 transfected HEK293 cells
T4 sequence: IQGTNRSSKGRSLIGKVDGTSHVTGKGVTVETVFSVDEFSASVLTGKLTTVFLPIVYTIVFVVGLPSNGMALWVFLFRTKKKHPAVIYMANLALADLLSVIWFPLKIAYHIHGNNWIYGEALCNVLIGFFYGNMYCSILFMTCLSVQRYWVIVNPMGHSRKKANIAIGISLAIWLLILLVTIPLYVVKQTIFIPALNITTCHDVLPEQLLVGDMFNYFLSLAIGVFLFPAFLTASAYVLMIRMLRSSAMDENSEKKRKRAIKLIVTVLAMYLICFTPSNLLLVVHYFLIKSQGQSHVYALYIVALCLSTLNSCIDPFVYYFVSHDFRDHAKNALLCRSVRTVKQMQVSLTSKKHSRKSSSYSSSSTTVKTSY

T5: FLAG-tagged PAR-2 over-expressed on HEK transfectants (Homo sapiens (Human), UniProt P55085 37-397)
T5 sequence: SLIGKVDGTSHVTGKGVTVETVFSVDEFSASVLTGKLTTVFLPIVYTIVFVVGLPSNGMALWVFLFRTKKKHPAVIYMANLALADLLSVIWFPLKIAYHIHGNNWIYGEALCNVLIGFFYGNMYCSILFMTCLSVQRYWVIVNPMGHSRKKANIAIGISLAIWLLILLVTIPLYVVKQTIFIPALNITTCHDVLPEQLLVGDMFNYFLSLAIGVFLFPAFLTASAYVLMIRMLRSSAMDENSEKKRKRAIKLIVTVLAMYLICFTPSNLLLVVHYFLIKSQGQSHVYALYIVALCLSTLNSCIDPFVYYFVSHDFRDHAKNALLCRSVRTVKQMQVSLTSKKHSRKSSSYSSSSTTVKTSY

T6: Rat PAR-2 peptide (rat)
T6 peptide: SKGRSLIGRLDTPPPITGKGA

T7: Human PAR-2 peptide (SEQ ID NO:1, Residues 33-54) (human)
T7 peptide: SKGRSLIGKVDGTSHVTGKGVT

T8: Cynomolgus PAR-2 peptide (cynomolgus)
T8 peptide: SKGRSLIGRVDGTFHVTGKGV

B1: Antibody Par-D (antibody, V domains shown)
VH: QVELVESGGGLVQPGGSLRLSCAASGFTFSNHAMHWVRQAPGKGLEWVSAISHPGKFTYYADSVKGRFTISRDNSKNTLYLQMNSLRAEDTAVYYCARHGDGMDYFDFWGQGTLVTVSS
VL: DIELTQPPSVSVAPGQTARISCSGDNIGTKYVYWYQQKPGQAPVLVIYDDNNRPSGIPERFSGSNSGNTATLTISGTQAEDEADYYCQSYDSQTMVFGGGTKLTVLG
notes: Codon-optimized version of Ab4996
B2: Ab4996 IgG4_Pro (antibody, V domains shown)
VH: B1 VH with E3Q
VL: B1 VL
notes: IgG4_Pro (human IgG4 constant regions, Ser241Pro hinge), lambda; also called IgG4p Ab4996
B3: Ab4994 Fab (Fab, V domains shown)
VH: QVELVESGGGLVQPGGSLRLSCAASGFTFSSYAMNWVRQAPGKGLEWVSAISYSGHLTGYADSVKGRFTISRDNSKNTLYLQMNSLRAEDTAVYYCARIQNDPMDVWGQGTLVTVSS
VL: DIELTQPPSVSVAPGQTARISCSGDNLGKKYVQWYQQKPGQAPVLVIYDDSNRPSGIPERFSGSNSGNTATLTISGTQAEDEADYYCSSWDVGSDGWVFGGGTKLTVLG
notes: Fab
B4: Ab5006 Fab (Fab, V domains shown)
VH: B3 VH with S49G, Y53F, S54D, H56M
VL: B3 VL
notes: Fab
B5: Ab5007 Fab (Fab, V domains shown)
VH: B3 VH with Y53F
VL: B3 VL
notes: Fab
B6: Ab4997 Fab (Fab, V domains shown)
VH: B3 VH with S54N, H56K, T58K
VL: B3 VL
notes: Fab
B7: Ab4999 Fab (Fab, V domains shown)
VH: B3 VH with A50T, G55S, H56S, L57A, G59S
VL: DIELTQPPSVSVAPGQTARISCSGDNLGKKYVQWYQQKPGQAPVLVIYDDSNRPSGIPERFSGSNSGNTATLTISGTQAEDEADYYCQTWDYSSIRDETNVFGGGTKLTVLG
notes: Fab
B8: Ab5003 Fab (Fab, V domains shown)
VH: B3 VH with S54K
VL: B3 VL
notes: Fab
B9: Ab4997 IgG4_Pro (antibody, V domains shown)
VH: B3 VH with E3Q, S54N, H56K, T58K
VL: B3 VL
notes: IgG4_Pro (human IgG4 constant regions, Ser241Pro hinge), lambda; also called IgG4p Ab4997
B10: Ab5007 IgG4_Pro (antibody, V domains shown)
VH: B3 VH with E3Q, Y53F
VL: B3 VL
notes: IgG4_Pro (human IgG4 constant regions, Ser241Pro hinge), lambda; also called IgG4p Ab5007
B11: Ab4994 IgG4_Pro (antibody, V domains shown)
VH: B3 VH with E3Q
VL: B3 VL
notes: IgG4_Pro: variable regions fused to human IgG4 constant regions with Ser241Pro in the hinge, lambda light chain; also called IgG4p Ab4994
B12: Ab5005 IgG4_Pro (antibody, V domains shown)
VH: B3 VH with E3Q, A50T, G55S, H56S, L57A, G59S
VL: DIELTQPPSVSVAPGQTARISCSGDNLGKKYVQWYQQKPGQAPVLVIYDDSNRPSGIPERFSGSNSGNTATLTISGTQAEDEADYYCQSWALVGSSESNVFGGGTKLTVLG
notes: IgG4_Pro (human IgG4 constant regions, Ser241Pro hinge), lambda; also called IgG4p Ab5005
B13: Ab5003 IgG4_Pro (antibody, V domains shown)
VH: B3 VH with E3Q, S54K
VL: B3 VL
notes: IgG4_Pro (human IgG4 constant regions, Ser241Pro hinge), lambda; also called IgG4p Ab5003
B14: Ab5150 IgG4_Pro (cross-cloned: light chain of Ab4999 with heavy chain of Ab5003) (antibody, V domains shown)
VH: B3 VH with E3Q, S54K
VL: B7 VL
notes: IgG4_Pro format
B15: Ab5149 IgG4_Pro (cross-cloned: light chain of Ab4999 with heavy chain of Ab4997) (antibody, V domains shown)
VH: B3 VH with E3Q, S54N, H56K, T58K
VL: B7 VL
notes: IgG4_Pro format
B16: Antibody Par-C (antibody, V domains shown)
VH: B3 VH with Y53F
VL: B7 VL
notes: Codon-optimized version of Ab5151

Residue numbers refer to the chain shown, from its start.

The first assay addresses T1, Murine PAR-2 peptide. The assay is described as follows: Mouse PAR-2 Peptide Binding (Kinexa). The procedure: (§1) Binding to peptide in solution was determined by Kinexa technology.
In the case of B1, the Kd (usually a measure of binding affinity in units of concentration) was 0.42 nM.

The target in another assay is T2, PAR-2 peptide (SEQ ID NO:42) coupled to …. Kind of assay: ELISA on peptide. (ELISA stands for enzyme-linked immunosorbent assay.)
On to B2, for which the binding result is recorded as “binds”.

The target of the next assay is T3, PAR-4 peptide (SEQ ID NO:44). Kind of assay: ELISA on peptide.
As to B2, the binding result was “no binding”.

The next assay addresses T4, Human PAR-2 on cells. The assay is described as follows: binding of Fab to PAR-2 transfected HEK cells (HEK-PAR-2 #3).
On to B3, for which a half-maximal effect (EC50) was put at 1.9 nM.
Regarding B4, a half-maximal response (EC50) required 11.9 nM.
Still for that read-out and setting: the result for B5 reads 9.66 nM; that for B6, 3.03 nM.
Turning to B7, it took 0.06 nM to reach a half-maximal effect (EC50).
Same read-out and setting: next, B8: 7.03 nM.

For another assay, the target named is T4, Human PAR-2 on cells. Kind of assay: binding of IgG4p to PAR-2 transfected HEK cells (HEK-PAR-2 #3).
For the molecule B9, the midpoint of the response, the EC50, lay at 0.38 nM.
For the molecule B10, the EC50 – broadly, the concentration giving half of the maximal effect – was 0.5 nM. This EC50 and that of the molecule before are within 1.5-fold of each other.
For B11, a half-maximal effect (EC50) was put at 0.4 nM.
The molecule B12 yielded an EC50 of 0.06 nM.
Turning to B13, the EC50 came to 0.46 nM.

A further assay concerns the target T4, Human PAR-2 on cells. The assay is described as follows: cell-based or functional assay.
As for B9, the “FLIPR A549 cells IC50” value is 2.4 nM.
The same measure, in the same setting: the result for B10 reads 3.7 nM; that for B11, 2.2 nM; that for B14, 2.3 nM.
For the molecule B12, the “FLIPR A549 cells IC50” value worked out at 2.5 nM.
Consider B13, for which the “FLIPR A549 cells IC50” value was 2.3 nM.
Same read-out and setting: the result for B15 reads 3.3 nM.

The target in a further assay is labeled peptide representing the N-terminus of PAR-2 (FRET assay). The assay is described as follows: cell-based or functional assay.
Turning to B9, the “FRET Peptide Cleavage IC50” value was < 30 nM.
Same read-out and setting: next, B10: < 30 nM.
As for B11, the “FRET Peptide Cleavage IC50” value is < 30 nM.
The same measure, in the same setting: the result for B14 reads < 30 nM; that for B12, < 30 nM; that for B13, < 30 nM.
B15: the “FRET Peptide Cleavage IC50” value was < 30 nM.
The same measure, in the same setting: next, B2: < 30 nM.

A further assay has as its target T5, FLAG-tagged PAR-2 over-expressed on HEK …. Kind of assay: cell-based or functional assay.
B9: the “FLAG Cell-Based Cleavage Approx. IC50” value was < 1 nM.
With B10, the “FLAG Cell-Based Cleavage Approx. IC50” value is < 1 nM.
As to B11, the “FLAG Cell-Based Cleavage Approx. IC50” value is < 1 nM.
For B14, the “FLAG Cell-Based Cleavage Approx. IC50” value was < 1 nM.
For the molecule B12, the “FLAG Cell-Based Cleavage Approx. IC50” value was < 1 nM.
In the case of B13, the “FLAG Cell-Based Cleavage Approx. IC50” value was < 1 nM.
As for B15, the “FLAG Cell-Based Cleavage Approx. IC50” value is < 1 nM.

The next assay concerns the target T6, Rat PAR-2 peptide. The assay is described as follows: Rat PAR-2 Peptide Binding (Kinexa). The method, then: as §1
Molecule B1 registered a Kd of 0.04 nM.

A further assay deals with T4, Human PAR-2 on cells. The assay is described as follows: cell binding of IgG4_Pro, HEK-PAR-2 (#3).
For B9, it took 0.4 nM to reach a half-maximal effect (EC50).
As to B10, the EC50 stood at 0.5 nM. This EC50 and that of the molecule before are within 1.5-fold of each other.
With B11, the 50% effective concentration (EC50) is 0.4 nM.
B14: the midpoint of the response, the EC50, lay at 0.3 nM. The EC50 values of the last two molecules are within 1.5-fold of each other.
B12 yielded an EC50 of 0.1 nM. Compared with the last molecule, the EC50 is about 3-fold lower.
On the same count and under the same terms, the result for B13 reads 0.5 nM.
B15: the EC50 turned out to be 0.7 nM.

A further assay has as its target T7, Human PAR-2 peptide (SEQ ID NO:1, …). The assay is described as follows: Kinexa, peptide in solution. The procedure: as §1
B16 displayed an equilibrium dissociation constant (Kd) of 0.03 nM.

The target of the next assay is T6, Rat PAR-2 peptide. Kind of assay: Kinexa, peptide in solution. The procedure:
as §1
B1 displayed a Kd of 0.04 nM.

The target of a further assay is T8, Cynomolgus PAR-2 peptide. The assay is described as follows: Kinexa, peptide in solution. The method, then:
as §1
In turn, B1 yielded a Kd of 0.14 nM.

A further assay addresses T1, Murine PAR-2 peptide. The assay is described as follows: Kinexa, peptide in solution. The method, then:
as §1
On to B16, for which the Kd is 0.03 nM.
The molecule B1 yielded a Kd of 0.42 nM.

The target of a further assay is T4, Human PAR-2 on cells. The assay is described as follows: cell binding, Fab against IgG4p of the same clone.
Consider B3, for which the “Ratio of EC50 Fab / EC50 IgG” value turned out to be 4.8.
For B5, the “Ratio of EC50 Fab / EC50 IgG” value came to 19.3.
On the same count and under the same terms, next, B6: 8; B7: 0.3; B8: 15.3.

The values above are taken from patent US20100119506A1 (published 2010).
